Publication PMC6163455 (Biomolecules, 2018)

What was measured:
[1] = tested on: CHO-K1/SpyC_C-BLA cells; experiment: live-cell confocal microscopy of split β-lactamase complementation; type: cell-based, Chinese hamster; conditions: for cytosolic delivery and β-lactamase complementation signal by confocal microscopy: CHO-K1/SpyC_C-BLA cells, 4 µM protein, live cell confocal microscopy, Figure 3c–f
Source text: (a) Live-cell functional uptake can be measured when N-terminal β-lactamase (N-BLA), fused to a CPP sequence, penetrates the cell membrane to complement C-terminal β-lactamase protein (C-BLA) in the cytosol (step i). Expression of the split β-lactamase moieties as fusions with either SpyTag (CPP_N-BLA_SpyT) or SpyCatcher (SpyC_C-BLA) facilitates rapid formation of functional β-lactamase proteins through SpyT/SpyC ligation inside the cells (step ii). This internalization is detected after addition of dye substrate (step iii) through cleavage of cytosol-retained CCF2 (step iv), which is measured via a change in fluorescence signal from green (520 nm) to blue (450 nm). (b) Internalization of CPP_N-BLA_SpyT and β-lactamase complementation in CHO-K1/SpyC_C-BLA cells is dose-dependent, measured by CCF2 cleavage (increase in % blue viable cells as estimated by flow cytometry). […] Error bars represent standard error of the mean of two independent experiments (duplicate samples). […] Bar scale is 50 µm.
(§1) Successful complementation of β-lactamase was dose- and CPP-dependent, with a limit of detection of ≤1 µM of CPP_N-BLA_SpyT. β-Lactamase complementation and N-BLA fragment internalization was visually confirmed using live cell confocal microscopy in CHO-K1/SpyC_C-BLA cells treated with Phylomer CPP_N-BLA_SpyT proteins (Figure 3c–f). The fluorescence signal is detectable as early as 30 min (Figure S2a). Signal conversion over time was confirmed by imaging cells treated with 1746c27_N-BLA_SpyT at sequential time points (Figure S2b,c), thus completing validation of the split assay system.
Cells were seeded (CHO-K1, 37,500 cells/mL; T47D 37,500 cells/mL) onto 4-well ibiTreat chamber slides (Thermo Fisher Scientific) and incubated for 48 h at 37 °C, 5% CO2. The medium was removed and replaced with medium containing SpyC_BLA/CPP_SpyT conjugated or unconjugated SpyC_BLA proteins and cells were incubated for 2 h at 37 °C, 5% CO2. After incubation, the cells were washed to remove any SpyC_BLA protein that had not internalized, loaded with substrate CCF2-AM (2 µM final concentration in media containing 1% FCS), and incubated for 1 h at room temperature. Live cells were visualized through confocal microscopy. Images were collected using a Nikon C2 Confocal Microscope through a 40× differential interference contrast (DIC) objective after excitation by a 408 nm laser. Bar scales in images represent 50 µm or 14.6 µm (zoom magnification 3.4×).
Figure S2. Split β-lactamase assay time course.
Live cell confocal microscopy imaging the CPP-mediated cytosolic internalization of 1746c27_N-BLA_SpyT (8 µM) in CHO-K1/C-BLA cells at (a) 30 min, (b) 60 min, and (c) 120 min after addition of CCF2-AM dye. The β-lactamase complementation signal is detectable as early as 30 min and continues to convert over time. Repeated excitation over time results in photobleaching of the converted fluorescence resonance energy transfer (FRET) substrate. Bar scale is 50 µm. […]
(also on this page, place not known: De ad ( B) ( D) ( E) 1746c27_N-BLA_SpyT + CHO-K1/SpyC_C-BLA) […]

[2] = tested on: CHO-K1/SpyC_C-BLA cells; experiment: split β-lactamase cytosolic delivery assay (CCF2-AM, flow cytometry); type: cell-based, Chinese hamster; conditions: CHO-K1/SpyC_C-BLA stable cells, blue fluorescent cells after 1 h, two independent experiments, duplicate samples, Figure 3b
Source text: SpyT/SpyC ligation enables specific covalent linkage of the split components when mixed together, thus reactivating β-lactamase activity. SpyC_C-BLA was selected for mammalian expression in stable cell lines, and N-BLA_SpyT was selected for CPP incorporation onto its N-terminus (CPP_N-BLA_SpyT). Constitutively expressed SpyC_C-BLA in the cytoplasm of stable cell lines can be complemented by CPP-delivered N-BLA_SpyT, thus forming functional β-lactamase.
In brief, CPP sequences are made as fusions to N-BLA_SpyT (CPP_N-BLA_SpyT, Figure 3a, step i). […] Cell penetrating peptide-dependent β-lactamase complementation and activity is detected by cleavage of the CCF2 substrate (Figure 3a, step iv). As in the full-length β-lactamase internalization assay, this reaction is measured as a shift in fluorescent signal from green to blue. […]
as §1, with “Signal conversion over time was confirmed by imaging cells treated with 1746c27_N-BLA_SpyT at sequential time points (Figure S2b,c), thus completing validation of the split assay system.” left out

| Molecule | earliest time at which β-lactamase complementation signal is detectable ([1]; 8 µM in CHO-K1/C-BLA cells, time after addition of CCF2-AM dye, imaged at 30, 60, 120 min, Figure S2) | cytosolic delivery and β-lactamase complementation signal by confocal microscopy [1] | β-lactamase complementation signal (% blue viable cells) [2] |
| --- | --- | --- | --- |
| 1746c27_N-BLA_SpyT: phylomer CPP 1746c27 fused to N-terminal β-lactamase fragment and SpyTag (protein, left off: His6, internal (after the CPP, by the printed letters), state not stated, phylomer CPP 1746c27 fused to N-terminal β-lactamase fragment and SpyTag) MASKKKKQPPKPKKPKTQEKKKKQPPKPKRASSGSHHHHHHGTGAGSGHPETLVKVKDAEDQLGARVGYIELDLNSGKILESFRPEERFPMMSTFKVLLCGAVLSRIDAGQEQLGRRIHYSQNDLVEYSPVTEKHLTDGMTVRELCSAAITMSDNTAANLLLTTIGGPKELTAFLHNMGDHVTRLDRWEPELNEAIPNDERDTTTPAAMATTLRKLLTGGGSASGGSGTGATSGAHIVMVDAYKPTKGGTGGS | 30 min | cytosolic delivery |  |
| 0084_N-BLA_SpyT: phylomer CPP 0084 fused to N-terminal β-lactamase fragment and SpyTag (protein, left off: His6, internal (after the CPP, by the printed letters), state not stated, phylomer CPP 0084 fused to N-terminal β-lactamase fragment and SpyTag) MASRKQKSLQTKLAENPPVPRKKRQSRPRWKQWLQKASSGSHHHHHHGTGAGSGHPETLVKVKDAEDQLGARVGYIELDLNSGKILESFRPEERFPMMSTFKVLLCGAVLSRIDAGQEQLGRRIHYSQNDLVEYSPVTEKHLTDGMTVRELCSAAITMSDNTAANLLLTTIGGPKELTAFLHNMGDHVTRLDRWEPELNEAIPNDERDTTTPAAMATTLRKLLTGGGSASGGSGTGATSGAHIVMVDAYKPTKGGTGGS |  | cytosolic delivery |  |
| 1746_N-BLA_SpyT: phylomer CPP 1746 fused to N-terminal β-lactamase fragment and SpyTag (protein, left off: His6, internal (after the CPP, by the printed letters), state not stated, phylomer CPP 1746 fused to N-terminal β-lactamase fragment and SpyTag) MASPLKPKKPKTQEKKKKQPPKPKKPKTQEKKKKQPPKPKRASSGSHHHHHHGTGAGSGHPETLVKVKDAEDQLGARVGYIELDLNSGKILESFRPEERFPMMSTFKVLLCGAVLSRIDAGQEQLGRRIHYSQNDLVEYSPVTEKHLTDGMTVRELCSAAITMSDNTAANLLLTTIGGPKELTAFLHNMGDHVTRLDRWEPELNEAIPNDERDTTTPAAMATTLRKLLTGGGSASGGSGTGATSGAHIVMVDAYKPTKGGTGGS |  | cytosolic delivery |  |
| N-BLA_SpyT: N-terminal β-lactamase fragment fused to SpyTag; No CPP negative control of split assay (protein) MGHHHHHHGATLEVLFQGPGGSQLHPETLVKVKDAEDQLGARVGYIELDLNSGKILESFRPEERFPMMSTFKVLLCGAVLSRIDAGQEQLGRRIHYSQNDLVEYSPVTEKHLTDGMTVRELCSAAITMSDNTAANLLLTTIGGPKELTAFLHNMGDHVTRLDRWEPELNEAIPNDERDTTMPAAMATTLRKLLTGGGSASGGSGTGATSGAHIVMVDAYKPTKGVDG |  | minimal evidence of internalization | negligible effect |
